# Patent US9623039B2, “Treatment and prevention of pathological conditions using iduna related techniques and compositions” (VALTED, LLC, priority 2010, dated 2017)
# Legend:
# PAR polymer [1] = assay: EMSA for PAR binding
# Text: PAR binding is specified by a sequence of approximately 20 amino acids containing N-terminal basic amino acids and a C-terminal region containing alternating hydrophobic and basic amino acids (FIG. 24). Iduna contains a predicted PAR polymer binding sequence within amino acids 144-167 of the WWE domain (FIGS. 1 and 24). The PAR-binding domain was defined by comparing to the consensus sequence for PAR-binding and the known PAR binding domain of Histone 3 (FIG. 24). HEK293 cells were transfected with GFP, GFP-Iduna lacking the WWE domain (GFP-IdunaΔWWE), GFP-Iduna lacking the RF domain (GFP-IdunaARF), and full-length GFP-Iduna, followed by immunoprecipitation with a GFP antibody. […] Only GFP-Iduna-ARF and full-length GFP-Iduna can co-immunoprecipiate PAR binding proteins (FIG. 25). The critical amino acids in the PAR binding domain, 156Y and 157R, were mutated to 156A and 157A in full length Iduna (Iduna-YRAA). […] Similar results are obtained with a biotin-tagged PAR polymer followed by detection with an anti-biotin antibody (FIG. 26). […] Histone H3 is a known PAR binding protein and was used as a positive control for the PAR overlay assay. […] An assay based on electrophorectic mobility shift (EMSA) for PAR binding was developed to monitor PAR polymer binding to Iduna. […]
# AIF = assay: NMDA-induced AIF translocation in cortical neurons; assay type: cell-based, mouse; conditions: excitotoxic NMDA
# Text: Parthanatos involves the translocation of apoptosis inducing factor (AIF) from the mitochondria to the nucleus following NMDA excitotoxicity. AIF translocation following excitotoxic NMDA treatment was monitored by immunohistochemistry and confocal microscopy (FIG. 50) and by immunoblot analysis of nuclear and mitochondrial subcellular fractions (FIG. 51).
# [2] = Middle cerebral artery occlusion; assay type: in vivo, mouse
# Method: Middle Cerebral Artery Occlusion (MCAD): To occlude the middle cerebral artery, mice were anesthetized with 1.5-2% isoflurane and maintained at normothermic temperature. A 7-0 monofilament with an enlarged silicone tip was passed through the right internal carotid artery to the base of the middle cerebral artery. Occlusion was confirmed by laser-Doppler flowmetry with a probe placed on thinned skull over the lateral parietal cortex. After 60 min of occlusion, the filament was removed and reperfusion was verified. At 24 h of reperfusion, the brain was harvested, sectioned into five coronal slabs, and stained with the vital dye, triphenyltetrazolium chloride. Infarct area was measured on the anterior and posterior surfaces of each slab and integrated to obtain infarct volume with correction for tissue swelling. The investigator performing the surgery and analyzing infarct size was unaware of the genotype of the mouse.
# Neurobehavioural Activity: Spontaneous motor activity was evaluated for 5 min by placing the animals in a mouse cage for 5 minutes. […] Neurological deficits were evaluated by an observer blinded to the treatment and genotype of the animals with a scale of 0-4 (0 no neurological deficit, 4 severe neurological deficit). […] Recordings were evaluated by an observer blinded to the treatment and genotype of the animals. […]
# PAR polymer [3] = assay: Competition binding of unlabeled PAR polymer against [32P]-labeled PAR polymer
# Method: The affinity of Iduna and Iduna-YRAA for PAR binding was determined by a competition assay with increasing concentrations of unlabeled PAR polymer against 2.5 nM [^32P]-labeled PAR polymer (mean size of 40 ADP-ribose units) (FIG. 29). […] The PAR polymer synthesized by in vitro automodification of PARP-1 has a mean length of 40 ADP-ribose residues and accordingly the concentration of PAR is given as a function of polymer molecules with a mean size of 40 ADP-ribose units. These concentrations of PAR polymers are within the range of polymer concentrations found in intact cells during NMDA excitotoxicity and N-methyl-N-nitro-N-nitrosoguanidine (MNNG) toxicity. PAR polymer fails to bind to Iduna-YRAA (FIG. 29). […] The observed Kd is 10 times less than the PAR polymer concentration found after NMDA-induced excitotoxicity in cortical neurons.
# Nitrocellulose PAR-binding Assay: Synthetic peptides or purified proteins were diluted in TBS-T buffer (1 μg/μl) and loaded onto a nitrocellulose membrane (0.05 μm) using a dot blot manifold system (Life Technologies). The membranes were washed once with TBS-T buffer, removed from the manifold and air dried. The membranes were then incubated in 10 ml of TBS-T buffer containing an indicated concentration of both [^32P]-labeled automodified PARP-1 and [^32P]-labeled PAR polymer for 3 h at room temperature with constant shaking. The membranes were washed with TBS-T buffer at 4° C. until no radioactivity could be detected in the waste. Finally, the membrane was air dried and subjected to autoradiography on Bio-Max MR (Kodak) films or analyzed by Cerenkov counting using an Instant Imager system (Perkin Elmer).
molecule,measurement,setting,value
"Iduna: novel NMDA-induced cell survival protein, PAR-dependent E3 ligase; 359 amino acids (protein) MEMAGCGEIDHSINMLPTNKKANESCSNTAPSLTVPECAICLQTCVHPVSLPCKHVFCYLCVKGASWLGKRCALCRQEIPEDFLDKPTLLSPEELKAASRGNGEYAWYYEGRNGWWQYDERTSRELEDAFSKGKKNTEMLIAGFLYVADLENMVQYRRNEHGRRRKIKRDIIDIPKKGVAGLRLDCDTNTVNLARESSADGADSGSAQTGASVQLAVPSSTRPLTSVDGQLTSPVTPSPDAGISLEDSFAHLQLSGDSIAERSHRGEGEEDHESPSSGRVPDTSVEETESDASSDSEDAPVVVAQHSLTQQRPLVPNGNQTVADQSDRSGTDRSVAGGGTMSVNVRSRRPDGQCTVIEV",PAR polymer mobility shift,PAR polymer [1],retards the mobility shift of PAR polymer
same,AIF translocation to the nucleus,AIF,reduces the translocation of AIF
same,reduction of infarct volume,"[2]; Iduna transgenic mice vs wild type, 60 min occlusion",50%
same,neurological function following stroke,[2]; Iduna-Tg mice vs WT,improved neurological function
same,maximum binding capacity (Bmax),PAR polymer [3]; competitive binding curve,3.04 ± 0.16 µmol
same,Kd,"PAR polymer [3]; homologous competitive binding curve, Cheng-Prusoff equation, read-out: dissociation constant (Kd)",12 nM
same,EC50,"PAR polymer [3]; unlabeled PAR polymer against 2.5 nM [32P]-labeled PAR polymer, mean size 40 ADP-ribose units, read-out: EC50 of wild type Iduna for PAR polymer",14.5 ± 0.13 nM
